In PMC2963451:

Target: Gag (GagΔp6) (HIV-1 BH10, UniProt P03347 1-447)
Test: fluorescence anisotropy

AGCTGCTTTTTGCCTGTACT (ssDNA) [JL936]
Kd: 9 nM

AGCUGCUUUUUGCCUGUACU (ssRNA) [JL943]
Kd: 8 nM
